# Measurements reported in PMC4414246.
# Target: U1A M51N (UniProt P09012 10-89, M51N)
# Assay: fluorescence polarization
# Chain of U1A M51N (P09012 10-89 M51N): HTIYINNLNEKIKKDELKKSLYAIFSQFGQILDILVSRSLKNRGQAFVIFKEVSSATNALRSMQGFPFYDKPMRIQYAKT
binder,measurement,value
GGCAGAUCUGAGCCUGGGAGCUCUCUGCC (structured_RNA) [TAR RNA],Kd,13.8 ± 1.6 µM
